Key:
[1] = molecular target: T1, rat NgR, full length, on cells (rat, UniProt Q99M75 27-447); test: FACS on HEK293f cells with rat NgR, AP-Nogo66 40 nM, Alexa Fluor-labelled anti-alkaline phosphatase antibody
T1 construct: whole, on cells; also called CHO K1 Rat NGR; rat NgR expressed on HEK293f cells
T1 sequence (looked up): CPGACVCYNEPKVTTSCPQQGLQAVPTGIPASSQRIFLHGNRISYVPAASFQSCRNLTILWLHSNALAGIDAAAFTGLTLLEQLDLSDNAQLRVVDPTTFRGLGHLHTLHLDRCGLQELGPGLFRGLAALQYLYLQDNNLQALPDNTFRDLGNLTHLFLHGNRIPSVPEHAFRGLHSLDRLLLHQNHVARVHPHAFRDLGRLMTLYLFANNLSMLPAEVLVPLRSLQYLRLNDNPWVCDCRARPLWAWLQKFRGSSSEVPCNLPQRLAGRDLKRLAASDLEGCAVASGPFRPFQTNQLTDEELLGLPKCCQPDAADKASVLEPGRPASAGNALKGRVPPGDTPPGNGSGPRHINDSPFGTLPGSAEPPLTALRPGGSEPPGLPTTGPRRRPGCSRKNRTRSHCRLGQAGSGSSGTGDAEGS
Experimental: (§1) To further characterize the binding and competitive properties of mAbs produced as described in Example 1, a suspension of HEK293f cells transiently expressing human or rat NgR was used. 48 h after transfection the cells were plated in 96-well microtiter plates (Nunc Maxisorb) and washed with Phosphate buffered saline buffer (PBS containing 1% BSA). 1 μg/200 μl of AP-Nogo66 (final concentration 40 nM) and varying concentrations of monoclonal antibodies (20 μg, 4, 0.8 and 0.16 μg/200 μl) were added and incubated for 1 h at 4° C. A monoclonal antibody with the same isotype was used as a negative control. The binding of AP-Nogo66 was detected with an anti-alkaline Phosphatase antibody (Sigma), which was labeled with Alexa Fluor using the Zenon mouse IgG2a labeling kit (Invitrogen). The secondary antibody was incubated for 1 h at 4° C. At the end of the incubation, the cells were washed with PBS and subjected to FACS analysis. At the 20 μg/200 μl concentration (20 fold molar excess) polyclonal anti-NgR antibody and the NgR-Fc (both from R&D Systems) blocked the AP-Nogo66 binding between 60% and 70%, while mAb 50 and 51 blocked the AP-Nogo66 binding by approximately 90%. […] The AP-Nogo66 fluorescence is shifted to lower intensities (shaded; green area) in the presence of both antibodies in HEK293f cells expressing human and rat NgR.

[2] = molecular target: T2, human NgR, full length, on cells (human, UniProt Q9BZR6 27-447); test: FACS on HEK293f cells with human NgR, AP-Nogo66 40 nM, Alexa Fluor-labelled anti-alkaline phosphatase antibody
T2 construct: whole, on cells; also called HEK293 NGR; human NgR expressed on HEK293f cells
T2 sequence (looked up): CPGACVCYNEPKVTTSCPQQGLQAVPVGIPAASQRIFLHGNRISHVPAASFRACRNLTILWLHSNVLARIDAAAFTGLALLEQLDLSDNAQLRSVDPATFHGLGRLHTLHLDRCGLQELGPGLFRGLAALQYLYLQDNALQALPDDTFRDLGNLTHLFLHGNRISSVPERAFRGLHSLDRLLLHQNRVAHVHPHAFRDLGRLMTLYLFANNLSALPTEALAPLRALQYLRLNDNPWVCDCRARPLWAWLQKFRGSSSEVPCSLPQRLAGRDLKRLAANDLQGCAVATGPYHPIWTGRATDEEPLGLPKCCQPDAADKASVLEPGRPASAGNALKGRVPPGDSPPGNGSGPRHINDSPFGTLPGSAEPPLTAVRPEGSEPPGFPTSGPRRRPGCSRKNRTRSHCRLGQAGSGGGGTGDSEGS
Experimental: as §1

[3] = molecular target: T3, recombinant Rat MAG/Fc Chimera (R&D Systems, Catalog #538-MG) (rat, UniProt P07722 20-516); test: competition ELISA, human NgR-Fc coated 0.2 µg/well, HRP-labelled MAG-Fc at 50 ng/ml, competitor unlabelled MAG-Fc
T3 construct: Bought; labeled with horseradish peroxidase by the Zenon human IgG labeling kit in the assay; Fc part of the bought chimera not given; not described
T3 sequence (looked up): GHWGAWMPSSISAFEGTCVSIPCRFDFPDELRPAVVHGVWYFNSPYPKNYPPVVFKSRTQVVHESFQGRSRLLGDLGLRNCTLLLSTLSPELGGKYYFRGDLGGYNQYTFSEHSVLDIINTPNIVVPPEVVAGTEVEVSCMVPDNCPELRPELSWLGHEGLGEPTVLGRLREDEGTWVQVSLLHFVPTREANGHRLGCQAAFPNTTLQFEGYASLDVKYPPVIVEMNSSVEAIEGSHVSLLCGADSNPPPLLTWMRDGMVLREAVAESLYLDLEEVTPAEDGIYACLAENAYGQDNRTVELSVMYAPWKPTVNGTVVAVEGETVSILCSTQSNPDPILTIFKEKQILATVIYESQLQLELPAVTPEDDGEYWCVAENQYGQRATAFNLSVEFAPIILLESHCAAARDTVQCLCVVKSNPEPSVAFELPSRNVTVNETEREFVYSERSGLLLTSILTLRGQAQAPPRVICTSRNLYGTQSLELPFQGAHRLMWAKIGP
Experimental: To further characterize the monoclonal antibodies a competition assay similar to the binding assay of Example 2 was used to test the ability of two mAbs produced in Example 1 to inhibit MAG-Fc binding to human NgR-Fc. We immobilized NgR-Fc (0.2 μg/well, R&D Systems) on 96-well microtiter plates (Nunc Maxisorb) in 50 mM Na-carbonate buffer pH 9 over night at 4° C. followed by a 2 h blocking step with 2% BSA in Tris-HCL, pH 7.2 at room temperature. MAG-Fc (R&D Systems recombinant Rat MAG/Fc Chimera, Catalog #538-MG) was labeled with horseradish peroxidase by the Zenon human IgG labeling kit (Molecular Probes). The wells received a constant concentration of labeled MAG-Fc (final concentration 50 ng/ml in Tris-HCL, pH 7.2 with 0.1% BSA) and the indicated concentrations of mAb 50 and mAb 51. This was incubated for 60 min at room temperature and using unlabeled MAG-Fc and NgR-Fc as controls. During each incubation step plates were washed with washing buffer (10 mM Tris-HCl, pH 7.2 and 0.05% Tween 20). Labeled MAG-Fc was developed using 3,3′,5,5′-tetramethylbenzidine substrate (TMB, Pierce) under standard conditions. […] MAG-Fc and NgR-Fc competed for the binding of labeled MAG-Fc (closed circles) to human NgR-Fc (a fusion protein comprising amino acids Met 1 to Ser 447 of the human NgR and a human Fc fragment (R&D Systems); closed squares). […]

B1: AP-Nogo66 (ligand)
chain: DAAQPARRARRTYEAYVRSSGIIPVEEENPDFWNREAAEALGAAKKLQPAQTAAKNLIIFLGDGMGVSTVTAARILKGQKKDKLGPEIPLAMDRFPYVALSKTYNVDKHVPDSGATATAYLCGVKGNFQTIGLSAAARFNQCNTTRGNEVISVMNRAKKAGKSVGVVTTTRVQHASPAGTYAHTVNRNWYSDADVPASARQEGCQDIATQLISNMDIDVILGGGRKYMFRMGTPDPEYPDDYSQGGTRLDGKNLVQEWLAKRQGARYVWNRTELMQASLDPSVTHLMGLFEPGDMKYEIHRDSTLDPSLMEMTEAALRLLSRNPRGFFLFVEGGRIDHGHHESRAYRALTETIMFDDAIERAGQLTSEEDTLSLVTADHSHVFSFGGYPLRGSSIFGLAPGKARDRKAYTVLLYGNGPGYVLKDGARPDVTESESGSPEYRQQSAVPLDEETHAGEDVAVFARGPQAHLVHGVQEQTFIAHVMAFAACLEPYTACDLAPPAGTTDAAHPGYLEEALSLERIYKGVIQAIQKSDEGHPFRAYLESEVAISEELVQKYSNSALGHVNCTIKELRRLFLVDDLVDSLKSLEGPEQKLISEEDLNSAVDHHHHHH
notes: Nogo66 cloned into pAPTag5, made in HEK293 cells; also called Nogo66 fused to an alkaline phosphatase tag
binding result [1]: binds | binding result [2]: binds

B2: human recombinant NgR/Fc chimera (R&D Systems, Cat. Number 1208-NG) (Fc fusion, UniProt Q9BZR6 27-447, looked up)
chain: T2 sequence (looked up)
notes: range 1-447; Bought from R&D Systems; also called hNgR-Fc; human NgR-Fc; not shown: human Fc fragment
binding result [3]: binds
